In the supplement of paper PMC12764529:
± gives the half width of the 95% confidence interval.

What was measured:
[1] = folding stability dG unfold (combined trypsin and chymotrypsin); higher = more stable
Summary of the method: (§1)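 Sequencing followed digestion of designed mini-proteins with trypsin and chymotrypsin, each at 11 concentrations in threefold dilutions together with a no-protease condition. The mini-proteins were under 80 residues, had no cysteine, sat in a PA-tagged cDNA display construct, and were kept only if AlphaFold2 dimer inter-PAE was above 15. From the counts, Bayesian fitting gave K50, and unfolding free energy was derived against a sequence-predicted unfolded-state K50 and a shared folded-state K50, per protease or combined.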

[2] = folding stability dG unfold from chymotrypsin proteolysis; higher = more stable
Summary of the method: as §1

[3] = folding stability dG unfold from trypsin proteolysis; higher = more stable
Summary of the method: as §1

SASMTYTVTVTVSVKNPDGTPIGTIPITRTMNLDEAKVIVEKEIKKTVDELFPGKPANVTVDTTVTPLPSAG [r14_570_JUSTAS]
folding stability dG unfold [1]: 0.899 ± 0.27 kcal/mol | folding stability dG unfold [2]: 1.6 ± 0.42 kcal/mol | folding stability dG unfold [3]: 0.482 ± 0.13 kcal/mol

SASPWIQKLAEEIADELAKENGWEEVKFTVTLPIRMPMYRYDPNGKKEPHDMWMWIKFEVTARVPPGDPSAG [r14_232_TrROS]
folding stability dG unfold [1]: 2.14 ± 0.24 kcal/mol | folding stability dG unfold [2]: 2.01 ± 0.18 kcal/mol | folding stability dG unfold [3]: 2.28 ± 0.061 kcal/mol

SASSMSLSFSVSLETDPEKGLLSTVTTTSTVTPYPDSVVTTTTVTTTVTPVPPGPPVVSPSATPVVALSSAG [r14_435_JUSTAS]
folding stability dG unfold [1]: 1.13 ± 0.051 kcal/mol | folding stability dG unfold [2]: 0.593 ± 0.098 kcal/mol | folding stability dG unfold [3]: 1.47 ± 0.04 kcal/mol

SASSSSSSYNVTIDPATGTVTVTNPDGSTTTVPPGSTLTVTSTSSDGGSALGSSTPSTSTTTIPVPAGTSAG [r14_366_JUSTAS]
folding stability dG unfold [1]: 0.919 ± 0.071 kcal/mol | folding stability dG unfold [2]: 0.699 ± 0.091 kcal/mol | folding stability dG unfold [3]: 1.05 ± 0.05 kcal/mol

SATAVVIKAEVIFPNNEKKEISVVIENLTEEEVEELAEELEKKIKEEAGIPDIEVKIKVETFAKDDPAFSAG [r14_207_TrMRF]
folding stability dG unfold [1]: 1.04 ± 0.3 kcal/mol | folding stability dG unfold [2]: 1.01 ± 0.09 kcal/mol | folding stability dG unfold [3]: 0.438 ± 0.16 kcal/mol

SATFTLPDGREVEVVSVEYDPETNTVTVLVRDRETGELYVFTFERLPDGEWRIVSRERVRVEPGETVLVSAG [r14_13_TrROS_Hall]
folding stability dG unfold [1]: 2.94 ± 0.07 kcal/mol | folding stability dG unfold [2]: 3.235 ± 0.022 kcal/mol | folding stability dG unfold [3]: 2.02 ± 0.025 kcal/mol

SATGKLAELLEEAFPDRPIASAEILGVEPLPDGRPALRFLLTFEDGSKLVVTVTSADHPEVLEAARENQSAG [r14_143_TrMRF]
folding stability dG unfold [1]: 2.96 ± 0.041 kcal/mol | folding stability dG unfold [2]: 2.913 ± 0.014 kcal/mol | folding stability dG unfold [3]: 3.04 ± 0.064 kcal/mol

SAVVSVDPATGVVTAKVKVDDTELTVTITRDPATGAWPVTFTPPGSGTPVVLDVPFTSVEEAIELAKRLSAG [r14_803_JUSTAS]
folding stability dG unfold [1]: 1.59 ± 0.05 kcal/mol | folding stability dG unfold [2]: 1.56 ± 0.036 kcal/mol | folding stability dG unfold [3]: 1.54 ± 0.02 kcal/mol

SAWKIEIKEVKRNPDGWYEITITIPFPGDPNMPVDELADEILQEFGIKDVTVEPNPDNGWIEITIRIPRSAG [r14_228_TrROS]
folding stability dG unfold [1]: 2.48 ± 0.19 kcal/mol | folding stability dG unfold [2]: 2.53 ± 0.057 kcal/mol | folding stability dG unfold [3]: 2.45 ± 0.067 kcal/mol

SAWVIPFEVRLPGSPEQARRQVEEWADNIANRYQQNGFRVVDIKIDEIEPDNVRVRLTIQIVPPGQEIPSAG [r14_973_TrROS]
folding stability dG unfold [1]: 2.66 ± 0.14 kcal/mol | folding stability dG unfold [2]: 2.52 ± 0.054 kcal/mol | folding stability dG unfold [3]: 2.74 ± 0.08 kcal/mol

SAYIQIERDPDGYIKIEVWFDSPDEGKEFVKEFVKELADQGLDIKIKVTKIEPYPGDPNMYRVSYTIKVSAG [r14_119_TrROS]
folding stability dG unfold [1]: 3.52 ± 0.083 kcal/mol | folding stability dG unfold [2]: 3.857 ± 0.038 kcal/mol | folding stability dG unfold [3]: 2.76 ± 0.098 kcal/mol

SAYLMFMIPIKNDEITIKIPVPPGYYVRIFVFFPDGMEPRTIPPDEKVKIKIPKPGAWIMIMVYPAEEMSAG [r14_882_TrROS]
folding stability dG unfold [1]: 4.41 ± 0.14 kcal/mol | folding stability dG unfold [2]: 5 ± 0.16 kcal/mol | folding stability dG unfold [3]: 3.38 ± 0.12 kcal/mol

SAYRIEIEIPSPKLAKKLEALLPPNYRIDNVRRNKNDNQVKITVEYDPGMPPSRMRRIHKEIKELIKELSAG [r14_306_TrROS]
folding stability dG unfold [1]: 1.86 ± 0.18 kcal/mol | folding stability dG unfold [2]: 2.24 ± 0.077 kcal/mol | folding stability dG unfold [3]: 1.24 ± 0.088 kcal/mol

SAYYIIIKIENPNDGKPFIIMIPGNNIHIFDPDNGKPVEIEVDGDKIEIKFNNRPVTVKPLEVIPPEAISAG [r14_208_TrROS]
folding stability dG unfold [1]: 2.15 ± 0.23 kcal/mol | folding stability dG unfold [2]: 2.42 ± 0.04 kcal/mol | folding stability dG unfold [3]: 1.54 ± 0.11 kcal/mol

SDDIKNMPFRITEIEPLPPGDPIPPGQRIRITIQMPDFPGQPFEFDIRVDPENGMIYMEMGGMPFEIPIKSA [r9_243_TrROS]
folding stability dG unfold [1]: 1.67 ± 0.15 kcal/mol | folding stability dG unfold [2]: 1.6 ± 0.13 kcal/mol | folding stability dG unfold [3]: 1.6 ± 0.019 kcal/mol

SDEGYKVEINPMIHRTDGKVTIMFMIQIKPGLDDLKIKIKLRLPDGKPMKVDYQRNPDNGFIMVSATMPPSA [r9_159_TrROS]
folding stability dG unfold [1]: 3.53 ± 0.14 kcal/mol | folding stability dG unfold [2]: 4.21 ± 0.066 kcal/mol | folding stability dG unfold [3]: 2.91 ± 0.1 kcal/mol

SDETVELPTVYTLYFGKDGTPRYYITVTLGDGPVAMELPEVSPDVKDGDVVPVKVPSSVVTSYSVSSAPASA [r9_769_JUSTAS]
folding stability dG unfold [1]: 0.808 ± 0.059 kcal/mol | folding stability dG unfold [2]: 0.777 ± 0.096 kcal/mol | folding stability dG unfold [3]: 0.671 ± 0.071 kcal/mol

SDKLAKLLEDELEKAGYEVVSVEVRYDPEKGLLYVNALVRRKDDPTWYRVRAVYNPETDELLEVKIEPLPSA [r9_814_TrMRF]
folding stability dG unfold [1]: > 6 kcal/mol | folding stability dG unfold [2]: 6.29 ± 0.11 kcal/mol | folding stability dG unfold [3]: 5.58 ± 0.21 kcal/mol
